These results are taken from US20250197490A1, “ANTI-CORTICOTROPIN-RELEASING HORMONE ANTIBODIES AND USE IN CONGENITAL ADRENAL HYPERPLASIA” (HBM ALPHA THERAPEUTICS, INC., priority 2021, published 2025).

The test system of test [1] is Mrap1 KO mice. The test can be described thus: Mrap1 KO mice constitutively high ACTH model. Type of test: in vivo, mouse. Particulars: for plasma ACTH concentration in Mrap1 KO mice: single dose of mAb 20 mg/kg.
The target of test [2] is T1, human UCN1 (Homo sapiens, UniProt P55089).
T1 sequence (P55089 83-122 limits assumed): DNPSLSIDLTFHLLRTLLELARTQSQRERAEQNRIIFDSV
In words: Human UCN1 ELISA binding. Particulars: in words. As to the method: Streptavidin (Thermo, Cat: 21125) was diluted in PBS to a concentration of 2 μg/ml. 100 μl of diluted streptavidin was added per well to ELISA microplates, and the plates were incubated overnight at 4° C. Plates were blocked with ELISA blocking solution (containing 2% w/v BSA, 0.05% (v/v) Tween-20, pH 7.4 PBS buffer) at 37° C. for 1 hour, and then incubated with 0.5 μg/mL CRH (NT biotin), 0.5 μg/mL CRH (CT biotin), 1 μg/mL human UCN1 (NT biotin), or 1 μg/mL human UCN1 (CT biotin) for 1 hour at 37° C. Plates were then washed and incubated with diluted anti-CRH antibody (Ab) at 15 μg/ml (100 nM, 10 diluted, 8 points) for 1 hour at 37° C. Subsequently, plates were washed and incubated with HRP-conjugated goat anti-human IgG (H+L) antibody (Jackson, Cat: 109-035-088) at 37° C. for 1 hour. […] 100 μL of ELISA stopping solution (Solarbio, Cat #: C1058) was added to terminate the reaction, and the optical density at 450 nm (OD450 nm) was determined by an ELISA plate reader (Molecular Devices, Spectra max 384 plus).
Streptavidin (Thermo, Cat: 21125) was diluted in PBS with a concentration of 2 μg/mL. […] 100 μL of ELISA stopping solution (Solarbio, Cat #: C1058) was then added to terminate the reaction, and the OD450 nm was determined by an ELISA plate reader (Molecular Devices, Spectra max 384 plus).
A general note: ELISA stands for enzyme-linked immunosorbent assay.

Test [3] deals with wildtype female C57BL/6 mice. The test can be described thus: Wildtype mice restraint-stress model (ACTH and corticosterone). In kind it is in vivo, mouse. As to the method:
8-10 week old wildtype female C57BL/6 mice were obtained from Charles River Laboratories. Mrap1 KO mice were obtained from Queen Mary University of London, UK. SSR125543A, a small molecule CRHR1 antagonist, was obtained from Axon Medchem (Cat #Axon 1799). Mouse Corticosterone (55-Corms-E01) and adrenocorticotropic hormone (ACTH) ELISA kits (21-ACTHU-E01) were obtained from ALPCO, USA. All procedures were carried out in accordance with the Guide for the Care and Use of Laboratory Animals of the National Institutes of Health. Protocols were approved by Charles River Laboratories Institutional Animal Care and Use Committee (IACUC).
To determine the effect of nonpainful physical restraint upon stress responses, mice were restrained in 50 ml polypropylene ventilated tubes in which the tip was cut off with a razor blade to allow the mouse to breathe easily for 15-20 minutes. A mouse was directed to the open tube and crawled in. A piece of paper towel was put behind the mouse so that it could not back out, and the cap was screwed on. The mouse was placed back in its cage, ventral size down on the bedding. This stressor is not considered painful, as mice are confined to a limited space (in a ventilated restraint tube) but not in an unnatural physical position. The investigator was present in the room during the entire procedure. At the end of the procedure, the mouse was removed by the tail.
On day 1, each mouse was injected intraperitoneally with 20 mg/kg of anti-CRH mAbs, hIgG1 or PBS (5 mice per group). On day 2 or 3, and 14 each mouse was subjected to physical restraint-stress described above for 15 or 20 min. Immediately after restraint-stress, 200 μl of blood was collected in EDTA tubes from the submandibular vein of each mouse. Plasma was separated using a refrigerated centrifuge (4° C. at 500×g for 10 min) and snap-frozen in dry ice for subsequent ACTH and corticosterone ELISA measurement.
On day 1, one half of mice were injected IP with 20 mg/kg of anti-CRH Ab or hIgG1 (5 mice per group). […]

“Also recorded” adds a separate entry of the source.

B1: PR302334-26: Series 9 humanized variant of PR302334; VH SEQ ID NO: 277, VL SEQ ID NO: 328 (antibody, V domains shown)
VH: EVQLVESGGGLVQPGGSLRLSCAASGFTFSTYAMSWVRQAPGKGLEWVASIRSGGTTYYPDSVKGRFTISRDNSKNSLYLQMNSLRAEDTAVYYCTRGIDWGQGTTVTVSS
VL: DIVMTQSPDSLAVSLGERATINCKASQSVNNDVAWYQQKPGQPPRLLIYYASNRYTGVPDRFSGSGSGTDFTLTISSLQAEDLAVYFCQQDYSSWTFGGGTKVEIK
modifications: PR302334-18 VH, PR302334-26 VH, PR302334-27 VH; PR302334-10 VL, PR302334-24 VL, PR302334-26 VL, PR302334-4 VL
Regarding B1, the “plasma ACTH concentration in Mrap1 KO mice” value in test [1] is “markedly reduced”. For the same molecule, the “binding to human UCN1 peptides in ELISA” value in test [2] is “except for PR302334-26, bound to human UCN1 peptides”.

B2: PR302334-24: humanized variant of PR302334; VH SEQ ID NO: 275, VL SEQ ID NO: 328 (antibody, V domains shown)
VH: EVQLVESGGGLVKPGGSLRLSCAASGFTFSTYAMSWVRQAPGKGLEWVASIRSGGTTYYPDSVKGRFTISRDNAKNSLYLQMNSLRAEDTAVYYCTRGIDWGQGTTVTVSS
VL: DIVMTQSPDSLAVSLGERATINCKASQSVNNDVAWYQQKPGQPPRLLIYYASNRYTGVPDRFSGSGSGTDFTLTISSLQAEDLAVYFCQQDYSSWTFGGGTKVEIK
modifications: PR302334-16 VH, PR302334-24 VH, PR302334-25 VH; PR302334-10 VL, PR302334-24 VL, PR302334-26 VL, PR302334-4 VL
For B2, the “efficacy versus SSR125543A in reducing plasma ACTH levels” value in test [1] (Mrap1 KO mice, PR302064 20 mg/kg, PR302334-24 20, 10 and 5 mg/kg, SSR125543A 30 mg/kg) was “more efficacious; also recorded: superior efficacy”. The “extent of inhibition of ACTH versus SSR125543A” value in test [1] (Mrap1 KO mice, SSR125543A 30 mg/kg) is on record as “more complete inhibition”. In addition, the “plasma ACTH concentration in Mrap1 KO mice” value in test [1] is “significantly reduced”. Moreover, in test [3] (wildtype mice restraint model), the “duration of the effects of the mAb” value is on record as “at least 17 days”. Also, the “extent of inhibition of ACTH and corticosterone versus SSR125543A” value in test [3] (wildtype mice restraint model, SSR125543A 30 mg/kg) is “more complete inhibition”. The “efficacy versus SSR125543A in reducing plasma ACTH and corticosterone levels” value in test [3] (wildtype mice restraint stress, mAb 20 mg/kg and 5 mg/kg, SSR125543A 30 mg/kg) is “more efficacious; also recorded: superior efficacy”.

B3: PR302038: humanized variant of PR301777; VH SEQ ID NO: 256, VL SEQ ID NO: 311 (antibody, V domains shown)
VH: EMQLVESGGGLVQPGGSLRLSCAASGFTFSNYWMNWVRQAPGKGLEWVAEIRLKSNNYATHYAESVKGRFTISRDDSKSSVYLQMNSLKTEDTAVYYCTVGTLVYWGQGTLVTVSS
VL: EIVLTQSPATLSLSPGERATLSCRASQSVSTSTYNYMHWFQQKPGQAPRLLIKFASNLESGIPARFSGSGSGTDFTLTISSLEPEDTAVYYCQHSWEIPYTFGQGTKLEIK
modifications: PR302036 VH, PR302038 VH, PR302041 VH; PR302031 VL, PR302038 VL, PR302045 VL, PR302052 VL, PR302066 VL
For the molecule B3, the “plasma ACTH concentrations in Mrap1 KO mice, dose dependent” value in test [1] (20 mg/kg and 5 mg/kg, day 2 and day 16) is recorded as “reduced”.
